{"source": "paper PMC6508567", "about": "“Noncanonical interactions between serpin and β‐amylase in barley grain improve β‐amylase activity in vitro” (Plant Direct, 2018)", "target": "the molecule itself", "assay": "cross-linking; purified proteins in PBS oxidised with 5, 10 and 20 μM CuCl2 for 10 min (disulfide bonds), non-reducing 10% SDS-PAGE, immunoblot; β-amylase alone or mixed with serpin Z4 at 1:2 and 1:5"}
{"protein": "serpin Z4 (natural protein, barley (Hordeum vulgare) cv. Harrington, UniProt P06293 1-399, looked up, serpin Z4 of barley (Hordeum vulgare) cv; Harrington, cloned from cDNA into pET28-(a); In one direction of the MST experiment the protein carried an NHS-ester fluorescent dye; in one direction of the SPR experiment it was amine-coupled to a CM5 chip; source: E. coli SHuffle cells, purified (Ni-NTA, gel filtration on Superdex 200 Increase)) MATTLATDVRLSIAHQTRFALRLRSAISSNPERAAGNVAFSPLSLHVALSLITAGAAATRDQLVAILGDGGAGDAKELNALAEQVVQFVLANESSTGGPRIAFANGIFVDASLSLKPSFEELAVCQYKAKTQSVDFQHKTLEAVGQVNSWVEQVTTGLIKQILPPGSVDNTTKLILGNALYFKGAWDQKFDESNTKCDSFHLLDGSSIQTQFMSSTKKQYISSSDNLKVLKLPYAKGHDKRQFSMYILLPGAQDGLWSLAKRLSTEPEFIENHIPKQTVEVGRFQLPKFKISYQFEASSLLRALGLQLPFSEEADLSEMVDSSQGLEISHVFHKSFVEVNEEGTEAGAATVAMGVAMSMPLKVDLVDFVANHPFLFLIREDIAGVVVFVGHVTNPLISA", "values": [{"measurement": "binding result", "value": "binds"}]}
